Laboratory results: US20150353909

target: K63-tetraubiquitin chains (UniProt P0CG48)
Sequence (P0CG48 whole entry, looked up): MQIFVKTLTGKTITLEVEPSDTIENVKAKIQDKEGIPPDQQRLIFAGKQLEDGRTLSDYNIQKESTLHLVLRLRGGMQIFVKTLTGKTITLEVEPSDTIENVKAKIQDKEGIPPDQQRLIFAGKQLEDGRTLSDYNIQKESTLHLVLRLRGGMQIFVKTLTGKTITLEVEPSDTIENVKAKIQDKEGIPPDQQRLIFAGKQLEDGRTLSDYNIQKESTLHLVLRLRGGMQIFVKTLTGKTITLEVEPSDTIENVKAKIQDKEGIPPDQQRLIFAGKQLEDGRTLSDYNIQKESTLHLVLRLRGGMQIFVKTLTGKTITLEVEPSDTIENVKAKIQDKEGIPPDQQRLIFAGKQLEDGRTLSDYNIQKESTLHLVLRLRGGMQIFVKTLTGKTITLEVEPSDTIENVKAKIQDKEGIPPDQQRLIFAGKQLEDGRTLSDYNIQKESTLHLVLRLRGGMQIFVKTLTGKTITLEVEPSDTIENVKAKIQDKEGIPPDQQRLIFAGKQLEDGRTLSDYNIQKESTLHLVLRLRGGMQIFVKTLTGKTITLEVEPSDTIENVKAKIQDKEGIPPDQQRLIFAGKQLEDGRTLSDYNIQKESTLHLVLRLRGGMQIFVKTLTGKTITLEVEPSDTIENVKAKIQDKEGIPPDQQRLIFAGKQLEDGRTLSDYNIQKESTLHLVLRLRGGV

Chain of His-tagged OTU11a (Q0V869 whole entry): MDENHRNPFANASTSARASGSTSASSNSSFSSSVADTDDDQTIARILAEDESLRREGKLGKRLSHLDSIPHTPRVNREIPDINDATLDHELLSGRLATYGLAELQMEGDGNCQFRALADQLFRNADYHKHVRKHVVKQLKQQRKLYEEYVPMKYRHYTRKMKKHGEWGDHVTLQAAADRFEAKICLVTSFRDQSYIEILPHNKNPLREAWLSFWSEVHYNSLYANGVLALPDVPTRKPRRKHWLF
Chain of His-tagged OTU12 (Q9SGA5 whole entry): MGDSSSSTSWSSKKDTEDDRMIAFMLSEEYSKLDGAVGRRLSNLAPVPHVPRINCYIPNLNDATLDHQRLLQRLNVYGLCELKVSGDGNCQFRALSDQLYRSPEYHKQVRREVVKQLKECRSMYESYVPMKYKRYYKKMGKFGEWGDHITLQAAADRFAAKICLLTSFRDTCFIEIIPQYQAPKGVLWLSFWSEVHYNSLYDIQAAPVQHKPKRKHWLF

In vitro deubiquitylation activity, -:
His-tagged OTLD1a, His-tagged OTU11a, His-tagged OTU5b, His-tagged OTU12, OTU4d

test system: purified recombinant linear UB trimers

In vitro deubiquitylation activity, -:
His-tagged OTLD1a, His-tagged OTU11a, His-tagged OTU5b, His-tagged OTU12, OTU4d

target: HA3-RUB-GST (UniProt Q9SHE7)

In vitro deubiquitylation activity, -:
His-tagged OTLD1a, His-tagged OTU11a, His-tagged OTU5b, His-tagged OTU12, OTU4d

test system: purified recombinant linear UB tetramers

In vitro deubiquitylation activity, -:
His-tagged OTLD1a, His-tagged OTU11a, His-tagged OTU5b, His-tagged OTU12, OTU4d

target: HA3-SUMO-GST (UniProt P55852)

In vitro deubiquitylation activity, -:
His-tagged OTLD1a, His-tagged OTU11a, His-tagged OTU5b, His-tagged OTU12, OTU4d

target: K48-tetraubiquitin chains (UniProt P0CG48)
Sequence (P0CG48 whole entry, looked up): as the sequence (P0CG48 whole entry, looked up) above

In vitro deubiquitylation activity, -:
His-tagged OTLD1a, His-tagged OTU11a, His-tagged OTU5b, His-tagged OTU12, OTU4d

test system: purified recombinant linear UB dimers

In vitro deubiquitylation activity, -:
His-tagged OTLD1a, His-tagged OTU11a, His-tagged OTU5b, His-tagged OTU12, OTU4d

test system: HA3-UBQ-GST [GST: P08515]

In vitro deubiquitylation activity, -:
His-tagged OTLD1a, His-tagged OTU11a, His-tagged OTU5b, His-tagged OTU12, OTU4d
